# From the supplement of paper PMC10567573
# B1: CD207 (parent)
# chain: MTVEKEAPDAHFTVDKQNISLWPR
# Variants of: B1
# Assay: protein stability index of a GFP-peptide fusion (GPS, HEK-293T) (PSI 1-6); higher = more stable
# Conditions: c terminus: a fixed tail appended
# 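Note: lentivirally expressed fusions sorted by FACS into six bins by GFP to DsRed ratio, PSI derived from sequencing read proportions per bin multiplied by bin number.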
row,Variant,protein stability index
1,MTVEKEAPRAHFTVDKQNISLWPR,3.13
2,MTVEKEAPIAHFTVDKQNISLWPR,2.19
3,MTVEKEAPSAHFTVDKQNISLWPR,3.25
4,MTVEKEAPGAHFTVDKQNISLWPR,3.05
5,MTVEKEAPDAHFFVDKQNISLWPR,3.13
6,MTVEKEAPDAHFYVDKQNISLWPR,3.59
7,MTVEKEAPDAHFQVDKQNISLWPR,3.43
8,MTVEKEAPDAHFLVDKQNISLWPR,4.19
9,MTVEKEAPDAHFCVDKQNISLWPR,3.2
10,MTVEKEAPDAHFIVDKQNISLWPR,3.49
11,MTVEKEAPDAHFHVDKQNISLWPR,3.03
12,MTVEKEAPDAHFAVDKQNISLWPR,3.53
13,MTVEKEAPDAHFSVDKQNISLWPR,3.8
14,MTVEKEAPDAHFGVDKQNISLWPR,3.04
15,MTVEKEAPDAHFWVDKQNISLWPR,2.54
16,MTVEKEAPDAHFNVDKQNISLWPR,3.63
17,MTVEKEAPDAHFVVDKQNISLWPR,3.42
18,MTVEKEAPDAHFDVDKQNISLWPR,3.96
19,MTVEKEAPDAHFRVDKQNISLWPR,2.66
20,MTVEKEAPDAHFPVDKQNISLWPR,3.19
21,MTVEKEAPDAHFKVDKQNISLWPR,3.61
22,MTVEKEAPDAHFMVDKQNISLWPR,3.12
23,MTVEKEAQDAHFTVDKQNISLWPR,3.24
24,MTVEKEAKDAHFTVDKQNISLWPR,3.54

row,Variant,protein stability index
1,MTVEKEAMDAHFTVDKQNISLWPR,3.17
2,MTVEKEASDAHFTVDKQNISLWPR,3.65
3,MTVEKEADDAHFTVDKQNISLWPR,3.67
4,MTVEKEARDAHFTVDKQNISLWPR,3.71
5,MTVEKEAVDAHFTVDKQNISLWPR,2.86
6,MTVEKEAWDAHFTVDKQNISLWPR,1.93
7,MTVEKEAYDAHFTVDKQNISLWPR,2.6
8,MTVEKEANDAHFTVDKQNISLWPR,3.48
9,MTVEKEATDAHFTVDKQNISLWPR,3.17
10,MTVEKEAGDAHFTVDKQNISLWPR,3.02
11,MTVEKEAEDAHFTVDKQNISLWPR,4.39
12,MTVEKEAADAHFTVDKQNISLWPR,3.52
13,MTVEKEAIDAHFTVDKQNISLWPR,3.22
14,MTVEKEAFDAHFTVDKQNISLWPR,1.98
15,MTVEKEALDAHFTVDKQNISLWPR,2.65
16,MTVEKEAHDAHFTVDKQNISLWPR,4.79
17,MTVEKEACDAHFTVDKQNISLWPR,2.96
18,MTVEKENPDAHFTVDKQNISLWPR,4.01
19,MTVEKESPDAHFTVDKQNISLWPR,3.71
20,MTVEKEPPDAHFTVDKQNISLWPR,3.54
21,MTVEKEQPDAHFTVDKQNISLWPR,3.97
22,MTVEKEEPDAHFTVDKQNISLWPR,4.23
23,MTVEKEHPDAHFTVDKQNISLWPR,3.32
24,MTVEKERPDAHFTVDKQNISLWPR,2.54

row,Variant,protein stability index
1,MTVEKEWPDAHFTVDKQNISLWPR,2.68
2,MTVEKETPDAHFTVDKQNISLWPR,3.31
3,MTVEKEVPDAHFTVDKQNISLWPR,3.51
4,MTVEKELPDAHFTVDKQNISLWPR,2.96
5,MTVEKEMPDAHFTVDKQNISLWPR,2.61
6,MTVEKEYPDAHFTVDKQNISLWPR,2.93
7,MTVEKEIPDAHFTVDKQNISLWPR,2.67
8,MTVEKEKPDAHFTVDKQNISLWPR,3.11
9,MTVEKECPDAHFTVDKQNISLWPR,3.31
10,MTVEKEDPDAHFTVDKQNISLWPR,3.79
11,MTVEKEFPDAHFTVDKQNISLWPR,2.77
12,MTVEKEAPDTHFTVDKQNISLWPR,3.83
13,MTVEKEAPDSHFTVDKQNISLWPR,3.5
14,MTVEKEAPDGHFTVDKQNISLWPR,3.75
15,MTVEKEAPDIHFTVDKQNISLWPR,2.21
16,MTVEKEAPDMHFTVDKQNISLWPR,2.31
17,MTVEKEAPDFHFTVDKQNISLWPR,2.84
18,MTVEKEAPDLHFTVDKQNISLWPR,2.91
19,MTVEKEAPDCHFTVDKQNISLWPR,3.77
20,MTVEKEAPDYHFTVDKQNISLWPR,3.3
21,MTVEKEAPDKHFTVDKQNISLWPR,3.09
22,MTVEKEAPDNHFTVDKQNISLWPR,3.23
23,MTVEKEAPDPHFTVDKQNISLWPR,3.01
24,MTVEKEAPDWHFTVDKQNISLWPR,2.4

row,Variant,protein stability index
1,MTVEKEAPDEHFTVDKQNISLWPR,4.07
2,MTVEKEAPDVHFTVDKQNISLWPR,2.91
3,MTVEKEAPDDHFTVDKQNISLWPR,3.56
4,MTVEKEAPDHHFTVDKQNISLWPR,3.76
5,MTVEKEAPDQHFTVDKQNISLWPR,3.46
6,MTVEKEAPDRHFTVDKQNISLWPR,2.48
7,MTVEKEAPDAHFTVEKQNISLWPR,3.51
8,MTVEKEAPDAHFTVHKQNISLWPR,2.48
9,MTVEKEAPDAHFTVFKQNISLWPR,2.06
10,MTVEKEAPDAHFTVSKQNISLWPR,3.61
11,MTVEKEAPDAHFTVIKQNISLWPR,2.31
12,MTVEKEAPDAHFTVPKQNISLWPR,2.74
13,MTVEKEAPDAHFTVQKQNISLWPR,3.17
14,MTVEKEAPDAHFTVTKQNISLWPR,2.74
15,MTVEKEAPDAHFTVCKQNISLWPR,3.35
16,MTVEKEAPDAHFTVRKQNISLWPR,3.06
17,MTVEKEAPDAHFTVKKQNISLWPR,2.81
18,MTVEKEAPDAHFTVYKQNISLWPR,1.98
19,MTVEKEAPDAHFTVGKQNISLWPR,2.92
20,MTVEKEAPDAHFTVAKQNISLWPR,3.35
21,MTVEKEAPDAHFTVNKQNISLWPR,2.54
22,MTVEKEAPDAHFTVMKQNISLWPR,2.67
